Experimental data taken from PMC10927535.

T1: LSH1-DBD M1-L166 (Arabidopsis thaliana, UniProt Q6NNI3 1-166)
T1 sequence: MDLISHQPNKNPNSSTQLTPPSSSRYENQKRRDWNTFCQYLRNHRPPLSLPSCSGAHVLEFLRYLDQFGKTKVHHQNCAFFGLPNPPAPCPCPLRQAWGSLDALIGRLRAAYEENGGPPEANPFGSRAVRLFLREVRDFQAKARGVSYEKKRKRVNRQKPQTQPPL

T2: LSH3-DBD S45-S190 (Arabidopsis thaliana, UniProt O82268 45-190)
T2 sequence: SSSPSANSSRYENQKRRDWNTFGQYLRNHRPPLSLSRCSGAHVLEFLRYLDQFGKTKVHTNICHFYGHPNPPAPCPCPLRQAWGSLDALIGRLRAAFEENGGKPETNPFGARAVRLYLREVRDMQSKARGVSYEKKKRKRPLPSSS

B1: WT ALOG motif probe (perfect motif) (dsDNA)
DNA 1: GCGTAGTTTACTGTTGACGTAG
DNA 2: CTACGTCAACAGTAAACTACG
B2: LSH perfect motif 17 bp (oPR799/oPR800) (dsDNA)
DNA 1: TAGTTTACTGTTGACGT
DNA 2: ACGTCAACAGTAAACTA

Key:
LSH1-DBD M1-L166 = molecular target: T1, LSH1-DBD M1-L166; test: EMSA
LSH3-DBD S45-S190 [1] = molecular target: T2, LSH3-DBD S45-S190; test: EMSA
LSH3-DBD S45-S190 [2] = molecular target: T2, LSH3-DBD S45-S190; test: crystal structure

| Binder | Kd (LSH1-DBD M1-L166) | Kd (LSH3-DBD S45-S190 [1]) | binding result (LSH3-DBD S45-S190 [2]) |
| --- | --- | --- | --- |
| B1 | < 50 nM | 28 nM |  |
| B2 |  |  | binds |
